Test results as given in article PMC11649690, “CEP signaling coordinates plant immunity with nitrogen status” (Nature Communications, 2024).
Non-standard residues stand in square brackets, D forms with d. No end group written: not given here. Hyp = O=C(O)[C@@H]1C[C@@H](O)CN1

T1: RECEPTOR-LIKE KINASE 7 ectodomain (RLK7^ECD) (Arabidopsis thaliana, UniProt F4I2N7 29-608)
T1 construct: RLK7, Arabidopsis thaliana, ectodomain, residues 29 to 608; Secreted with a 30 K signal peptide from the modified pFastBAC vector; a TEV site stood before the StrepII-9xHis tag, so residues of the site may be left after cleavage; source: Trichoplusia ni Tnao38 cells, secreted, purified (Ni2+, Strep-Tactin, TEV, SEC); not shown: StrepII, C-terminal, cleaved; His9, C-terminal, cleaved
T1 sequence (looked up): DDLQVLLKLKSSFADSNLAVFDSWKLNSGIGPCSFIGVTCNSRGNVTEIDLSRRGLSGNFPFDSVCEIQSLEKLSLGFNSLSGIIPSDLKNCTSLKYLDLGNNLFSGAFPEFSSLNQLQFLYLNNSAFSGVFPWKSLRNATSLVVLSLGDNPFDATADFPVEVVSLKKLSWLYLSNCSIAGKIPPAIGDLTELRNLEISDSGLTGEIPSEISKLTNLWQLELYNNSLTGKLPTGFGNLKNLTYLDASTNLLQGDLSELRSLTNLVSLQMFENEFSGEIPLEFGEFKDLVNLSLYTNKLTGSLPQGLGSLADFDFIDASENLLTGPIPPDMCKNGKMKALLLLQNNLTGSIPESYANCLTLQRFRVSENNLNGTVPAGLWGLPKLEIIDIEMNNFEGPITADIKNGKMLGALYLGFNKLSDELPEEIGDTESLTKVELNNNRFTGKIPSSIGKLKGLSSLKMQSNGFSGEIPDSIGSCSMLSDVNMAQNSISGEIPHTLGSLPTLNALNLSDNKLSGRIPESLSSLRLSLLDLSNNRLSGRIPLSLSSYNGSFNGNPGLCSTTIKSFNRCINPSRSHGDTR

T2: CEP RECEPTOR 2 ectodomain (CEPR2^ECD) (Arabidopsis thaliana, UniProt Q9C7T7 32-620)
T2 construct: CEPR2, Arabidopsis thaliana, ectodomain, residues 32 to 620; Secreted with a 30 K signal peptide from the modified pFastBAC vector; a TEV site stood before the StrepII-9xHis tag, so residues of the site may be left after cleavage; source: Trichoplusia ni Tnao38 cells, secreted, purified (Ni2+, Strep-Tactin, TEV, SEC); not shown: StrepII, C-terminal, cleaved; His9, C-terminal, cleaved
T2 sequence (looked up): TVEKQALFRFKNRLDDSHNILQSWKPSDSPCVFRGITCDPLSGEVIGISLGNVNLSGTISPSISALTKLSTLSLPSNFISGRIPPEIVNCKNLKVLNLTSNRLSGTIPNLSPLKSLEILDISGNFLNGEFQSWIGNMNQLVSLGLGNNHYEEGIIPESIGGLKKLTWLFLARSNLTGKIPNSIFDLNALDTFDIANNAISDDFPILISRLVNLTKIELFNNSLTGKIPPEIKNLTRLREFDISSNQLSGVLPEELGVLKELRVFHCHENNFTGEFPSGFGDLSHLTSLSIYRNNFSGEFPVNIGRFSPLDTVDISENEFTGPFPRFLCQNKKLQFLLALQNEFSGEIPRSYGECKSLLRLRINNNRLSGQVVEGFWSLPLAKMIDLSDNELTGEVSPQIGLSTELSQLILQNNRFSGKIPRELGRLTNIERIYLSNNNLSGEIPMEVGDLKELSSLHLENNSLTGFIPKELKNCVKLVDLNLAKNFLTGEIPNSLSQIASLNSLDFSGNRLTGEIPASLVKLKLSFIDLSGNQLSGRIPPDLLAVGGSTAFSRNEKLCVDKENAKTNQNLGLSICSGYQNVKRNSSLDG


Tests used:
[1] = test system: cytosolic calcium concentrations ([Ca^2+]cyt), Col-0^AEQ seedlings; assay: Calcium influx assay (aequorin seedlings); format: in vivo, Arabidopsis thaliana; conditions: wild type, 30 min
Procedure: Apoaequorin-expressing liquid-grown eight-day-old seedlings were transferred individually to a 96-well plate containing 100 µl of 5 µM coelenterazine-h (PJK Biotech, Germany) and incubated in the dark overnight. Luminescence was measured using a plate reader (Luminoskan Ascent 2.1, Thermo Fisher Scientific, USA). Background luminescence was recorded by scanning each well 12 times at 10 s intervals, before adding a 25 µl elicitor solution to the indicated final concentration. Luminescence was recorded for 30 min at the same interval. The remaining aequorin was discharged using 2 M CaCl2, 20% ethanol. The values for cytosolic Ca^2+ concentrations ([Ca^2+]cyt) were calculated as luminescence counts per second relative to total luminescence counts remaining (L/Lmax).

[2] = biological target: T1, RECEPTOR-LIKE KINASE 7 ectodomain …; assay: ITC; 300 μM peptide in the syringe injected into 30 μM receptor ectodomain in the cell; 25 °C; 20 mM citrate pH 5.0, 150 mM NaCl (SEC buffer); N fitted to 1; duplicates; conditions: both partners purified
[3] = biological target: T2, CEP RECEPTOR 2 ectodomain (CEPR2^ECD); assay: as above; conditions: both partners purified

Row | Molecule | calcium influx [1] | Kd [2] [µM] | Kd [3] [µM]
1 | AFR[Hyp]THQG[Hyp]SQGIGH [CEP4-15mer, 15mer peptide lacking the N-terminal D residue] | triggered a dose-dependent calcium influx with no significant differences to the response elicited by the 16mer peptide | – | –
2 | RLASG[Hyp]SPRGRGH [PAMP-INDUCED PEPTIDE 1 (PIP1)] | – | 0.5 | –
3 | DAFR[Hyp]THQG[Hyp]SQGIGH (CEP4 peptide domain of the CEP4 precursor, Arabidopsis thaliana (AT2G35612); 16mer with N-terminal D and C-terminal H; a 15mer without the N-terminal D is reported only for calcium influx; source: synthetic peptide (Pepmic, at least 90% purity)) [C-… ENCODED PEPTIDE 4 (CEP4), 16mer] | – | 9 | 15.7
4 | DFRPTNPGNSPGVGH (peptide, UniProt Q8L8Y3 72-86, looked up, CEP1 peptide, the mature CEP domain cut from the CEP1 precursor, Arabidopsis thaliana; source: synthetic peptide (Pepmic, at least 90% purity)) [C-… ENCODED PEPTIDE 1 (CEP1)] | – | – | 9.3
